The star is where a group is joined. Biotin = O=C1N[C@H]2[C@H](CS[C@H]2CCCCC(=O)*)N1
Biological target: T1, mature myostatin (UniProt O08689 268-376, limits assumed)
T1 construct: mature; also called MSTN
T1 sequence (looked up): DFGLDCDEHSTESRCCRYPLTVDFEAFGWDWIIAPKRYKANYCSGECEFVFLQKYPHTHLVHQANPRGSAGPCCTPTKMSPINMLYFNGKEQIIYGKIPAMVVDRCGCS
Assay: ELISA, biotinylated peptide on coated myostatin, with or without zinc
Description: For this, 3 μl of myostatin at a concentration of 100 ng/μl are taken up in 50 μl of carbonate buffer and added to each well of the assay plate (R&D Systems DY990). After an overnight incubation at 4° C., the plate is washed with 100 μl of PBS-Tween (0.05% Tween 20), then the blocking step to saturate non-specific sites is carried out for 2 hours at room temperature with 100 μl of PBS and 6% of milk per well. Five successive washes with 200 μl of PBS-Tween (0.05% Tween 20) are performed and increasing amounts of biotinylated fibromodulin peptides are then deposited (100 μl final in PBS) and the plate is incubated for 1 hour at 37° C. For the positive control, an antibody of goat anti-myostatin (≠AF788, R&D Systems), which was deposited in the control wells and incubated for 1 hour at 1/100th (0.1 mg/ml) was […]. The wells were then washed 5 times with PBS-Tween (0.05% Tween 20). […] After five washes, adding the peroxidase substrate, the TMB Substrate Reagent Set (Tetramehylbenzidine, OptEIA, ≠555214) allows the obtention of a colored reaction proportional to the quantity of HRP present in the wells. The reaction is stopped after 20 minutes by addition of sulfuric acid 2N, and the plate is read at 450 nm on a Discovery HT-R spectrophotometer (Bio-TEK).

B1: Peptide Biotine-69-101 mFibromoduline mutated (Fmod mutated) (peptide)
peptide: Biotin-PPPEPRDCPQEADAPPNFPTAMYADNRNLKYLP-NH2
SMILES: CSCC[C@H](NC(=O)[C@H](C)NC(=O)[C@@H](NC(=O)[C@@H]1CCCN1C(=O)[C@H](Cc1ccccc1)NC(=O)[C@H](CC(N)=O)NC(=O)[C@@H]1CCCN1C(=O)[C@@H]1CCCN1C(=O)[C@H](C)NC(=O)[C@H](CC(=O)O)NC(=O)[C@H](C)NC(=O)[C@H](CCC(=O)O)NC(=O)[C@H](CCC(N)=O)NC(=O)[C@@H]1CCCN1C(=O)[C@H](CS)NC(=O)[C@H](CC(=O)O)NC(=O)[C@H](CCCNC(=N)N)NC(=O)[C@@H]1CCCN1C(=O)[C@H](CCC(=O)O)NC(=O)[C@@H]1CCCN1C(=O)[C@@H]1CCCN1C(=O)[C@@H]1CCCN1C(=O)CCCC[C@@H]1SC[C@@H]2NC(=O)N[C@@H]21)[C@@H](C)O)C(=O)N[C@@H](Cc1ccc(O)cc1)C(=O)N[C@@H](C)C(=O)N[C@@H](CC(=O)O)C(=O)N[C@@H](CC(N)=O)C(=O)N[C@@H](CCCNC(=N)N)C(=O)N[C@@H](CC(N)=O)C(=O)N[C@@H](CC(C)C)C(=O)N[C@@H](CCCCN)C(=O)N[C@@H](Cc1ccc(O)cc1)C(=O)N[C@@H](CC(C)C)C(=O)N1CCC[C@H]1C(N)=O
notes: also called mutated biotin mFmod peptide
B1: no binding.
